{"source": "patent US20180273635A1", "about": "(Zymeworks, published 2018)", "binders": {"B1": {"name": "Variant 12471 (antibody, human IgG1, kappa, name in Kabat numbering, V domains shown)", "VH": "EVQLVESGGGLVQPGGSLRLSCAASGFTFADYTMDWVRQAPGKGLEWVGDVNPNSGGSIYNQRFKGRFTFSVDRSKNTLYLQMNSLRAEDTAVYYCARNLGPSFYFDYWGQGTLVTVSS", "VL": "DIQMTQSPSSLSASVGDRVTITCKASQDVSIGVAWYQQKPGKAPKLLIYSASYRYTGVPSRFSGSGSGTDFTLTISSLQPEDFATYYCQQYYIYPATFGQGTKVEIKR", "notes": "Kabat numbering; also called v12471; FSA version of v9996"}, "B2": {"name": "Variant 4435 (antibody, V domains shown)", "VH": "EVQLVESGGGLVQPGGSLRLSCAASGFTFTDYTMDWVRQAPGKGLEWVADVNPNSGASIYNQRFKGRFTLSVDRSKNTLYLQMNSLRAEDTAVYYCARNLGPSFYFDYWGQGTLVTVSS", "VL": "DIQMTQSPSSLSASVGDRVTITCKASQDVSIGVAWYQQKPGKAPKLLIYSASYRYTGVPSRFSGSGSGTDFTLTISSLQPEDFATYYCQQYYIYPYTFGQGTKVEIK", "notes": "also called literature pertuzumab variant"}, "B3": {"name": "Variant 4434 (antibody, name in Kabat numbering, V domains shown)", "VH": "EVQLVESGGGLVQPGGSLRLSCAASGFTFADYTMDWVRQAPGKGLEWVADVNPNSGGSIYNQRFKGRFTLSVDRSKNTLYLQMNSLRAEDTAVYYCARNLGPSFYFDYWGQGTLVTVSS", "VL": "DIQMTQSPSSLSASVGDRVTITCKASQDVSIGVAWYQQKPGKAPKLLIYSASYRYTGVPSRFSGSGSGTDFTLTISSLQPEDFATYYCQQYYIYPYTFGQGTKVEIK", "notes": "as for B2"}, "B4": {"name": "variant 12471 (antibody, human IgG1, kappa, name in Kabat numbering, V domains shown)", "VH": "EVQLVESGGGLVQPGGSLRLSCAASGFTFADYTMDWVRQAPGKGLEWVGDVNPNSGGSIYNQRFKGRFTFSVDRSKNTLYLQMNSLRAEDTAVYYCARNLGPSFYFDYWGQGTLVTVSS", "VL": "DIQMTQSPSSLSASVGDRVTITCKASQDVSIGVAWYQQKPGKAPKLLIYSASYRYTGVPSRFSGSGSGTDFTLTISSLQPEDFATYYCQQYYIYPATFGQGTKVEIKR", "notes": "FSA, bivalent, wild type Fc; also called v12471; FSA version of v9996"}, "B5": {"name": "Variant 4436 (antibody, name in Kabat numbering, V domains shown)", "VH": "EVQLVESGGGLVQPGGSLRLSCAASGFTFTDYTMDWVRQAPGKGLEWVADVNPNSGGSIYNQRVKGRFTLSVDRSKNTLYLQMNSLRAEDTAVYYCARNLGPSFYFDYWGQGTLVTVSS", "VL": "DIQMTQSPSSLSASVGDRVTITCKASQDVSIGVAWYQQKPGKAPKLLIYSASYRYTGVPSRFSGSGSGTDFTLTISSLQPEDFATYYCQQYYIYPYTFGQGTKVEIK", "notes": "as for B2"}, "B6": {"name": "Variant 10014 (pertuzumab T30A / Y96A, one-armed format) (antibody)", "heavy": "EVQLVESGGGLVQPGGSLRLSCAASGFTFADYTMDWVRQAPGKGLEWVADVNPNSGGSIYNQRFKGRFTLSVDRSKNTLYLQMNSLRAEDTAVYYCARNLGPSFYFDYWGQGTLVTVSSASTKGPSVFPLAPSSKSTSGGTAALGCLVKDYFPEPVTVSWNSGALTSGVHTFPAVLQSSGLYSLSSVVTVPSSSLGTQTYICNVNHKPSNTKVDKKVEPKSCDKTHTCPPCPAPELLGGPSVFLFPPKPKDTLMISRTPEVTCVVVDVSHEDPEVKFNWYVDGVEVHNAKTKPREEQYNSTYRVVSVLTVLHQDWLNGKEYKCKVSNKALPAPIEKTISKAKGQPREPQVYVYPPSRDELTKNQVSLTCLVKGFYPSDIAVEWESNGQPENNYKTTPPVLDSDGSFALVSKLTVDKSRWQQGNVFSCSVMHEALHNHYTQKSLSLSPG", "light": "not shown", "Fc": "not shown", "notes": "Monovalent one-armed (OA) antibody; also called v10014"}}, "key": {"[1]": {"target": "T1, HER2 expressed on the surface of cells (human, UniProt P04626 23-1255)", "assay": "cell-based or functional assay"}, "[2]": {"target": "T1, HER2 expressed on the surface of cells", "assay": "cell-based or functional assay", "remark": "listed apart in the source"}, "[3]": {"target": "T1, HER2 expressed on the surface of cells", "assay": "cell-based or functional assay", "remark": "listed apart in the source"}, "[4]": {"target": "T1, HER2 expressed on the surface of cells", "assay": "flow cytometry on SKBR3 cells, n=1", "experimental": "(§1) Binding of the test antigen-binding constructs to the surface of HER2+ cells was determined by flow cytometry. Cells were washed with PBS and resuspended in DMEM at 1×10⁵ cells/100 μl. 100 μl cell suspension was added into each microcentrifuge tube, followed by 10 μl/tube of the antigen-binding constructs. The tubes were incubated for 2 hr at 4° C. on a rotator. The microcentrifuge tubes were centrifuged for 2 min 2000 RPM at room temperature and the cell pellets washed with 500 μl media. Each cell pellet was resuspended in 100 μl of fluorochrome-labelled secondary antibody diluted in media to 2 μg/sample. The samples were then incubated for lhr at 4° C. on a rotator. After incubation, the cells were centrifuged for 2 min at 2000 rpm and washed in media. The cells were resuspended in 500 μl media, filtered, transferred to a tube containing 5 μl propidium iodide (PI) and analyzed on a BD LSR II flow cytometer according to the manufacturer's instructions. The B50 of the tested antigen-binding constructs was assessed by FACS with data analysis and curve fitting performed in GraphPad Prism. The experiment was carried out once (n=1) in SKBr3 cells, and twice (n=2) in SKOV3, MCF7, and BT-474 cells.\n(§2) The experiment was performed once (n=1) in each cell line."}, "[5]": {"target": "T1, HER2 expressed on the surface of cells", "assay": "flow cytometry on BT474 cells, n=1", "experimental": "as §1, §2"}, "[6]": {"target": "T1, HER2 expressed on the surface of cells", "assay": "cell-based or functional assay", "remark": "listed apart in the source"}, "[7]": {"target": "T1, HER2 expressed on the surface of cells", "assay": "flow cytometry on BT474 cells, n=1; B50 = concentration at 50% of Bmax", "experimental": "as §1, §2"}, "[8]": {"target": "T1, HER2 expressed on the surface of cells", "assay": "cell-based or functional assay", "remark": "listed apart in the source"}, "[9]": {"target": "T1, HER2 expressed on the surface of cells", "assay": "cell-based or functional assay", "remark": "listed apart in the source"}, "[10]": {"target": "T1, HER2 expressed on the surface of cells", "assay": "flow cytometry on SKBR3 cells, n=1; B50 = concentration at 50% of Bmax", "experimental": "as §1, §2"}, "[11]": {"target": "T1, HER2 expressed on the surface of cells", "assay": "flow cytometry on MCF7 cells (low HER2), n=1; B50 = concentration at 50% of Bmax", "experimental": "as §1, §2"}, "[12]": {"target": "T1, HER2 expressed on the surface of cells", "assay": "cell-based or functional assay", "remark": "listed apart in the source"}, "[13]": {"target": "T1, HER2 expressed on the surface of cells", "assay": "flow cytometry on MCF7 cells (low HER2), n=1", "experimental": "as §1, §2"}, "Recombinant human HER2 [14]": {"target": "T2, Recombinant human HER2 (human, UniProt P04626 23-652)", "T2 construct": "extracellular domain; Analyte of the SPR assays; also called HER2 ECD; ECD2 of HER2", "assay": "SPR as in Example 3, average of three independent runs", "experimental": "(§3) The affinity towards HER2 ECD of the samples was measured by SPR on a Biacore T200 as follows. Between 2000 and 4000 RU of anti-human Fc injected at concentration between 5 and 10 μg/ml was immobilized on a CM5 chip using standard amine coupling. Antigen-binding constructs were captured on the anti-human Fc (injected at concentration at 0.51 microg/mL in PBST, 1 min at 10 microl/min) at response levels ranging from 120-270 RU. […] HER2 dilutions were analyzed in duplicates. Sensograms were fit globally to a 1: 1 Langmuir binding model, using the software provided with the Biacore T200. All experiments were conducted at 25° C."}, "Recombinant human HER2 [15]": {"target": "T2, Recombinant human HER2", "assay": "SPR, Ka ratio to WT pertuzumab", "experimental": "as §3"}, "Recombinant human HER2 [16]": {"target": "T3, Recombinant human HER2 (human, UniProt P04626 23-652)", "T3 construct": "extracellular domain; analyte of the SPR assays; also called HER2 ECD; ECD2 of HER2", "assay": "SPR, FSA captured on anti-human Fc, HER2 flowed, 25 C, after protein A and SEC"}, "Recombinant human HER2 [17]": {"target": "T4, Recombinant human HER2 (human, UniProt P04626 23-652)", "T4 construct": "extracellular domain; also called HER2 ECD", "assay": "SPR at 25 C, affinity against v10014 (itself, reference)", "experimental": "as §3"}, "Recombinant human HER2 [18]": {"target": "T4, Recombinant human HER2", "assay": "SPR at 25 C, affinity against WT v10013", "experimental": "as §3"}}, "data": [{"binder": "B1", "values": [{"measurement": "growth inhibition IC50 (potency), NCI-N87 cells, 5 days", "setting": "[1]", "value": 1.8, "unit": "nM"}, {"measurement": "growth inhibition span (percentage of cells killed), NCI-N87 cells", "setting": "[1]", "value": 32, "unit": "%"}, {"measurement": "increase in efficacy with respect to the WT, NCI-N87 cells", "setting": "[1]", "value": 1.9, "unit": "fold"}, {"measurement": "increase in potency with respect to the WT, NCI-N87 cells", "setting": "[1]", "value": 5.1, "unit": "fold"}, {"measurement": "growth inhibition IC50 (potency), BT474 cells", "setting": "[2]", "value": 0.31, "unit": "nM"}, {"measurement": "growth inhibition span (percentage of cells killed), BT474 cells", "setting": "[2]", "value": 26, "unit": "%"}, {"measurement": "growth inhibition span ratio to WT, BT474 cells", "setting": "[2]", "value": 2.5, "unit": "fold"}, {"measurement": "growth inhibition IC50 (potency), SKBR3 cells, 5 days", "setting": "[3]", "value": 0.1, "unit": "nM"}, {"measurement": "Bmax", "setting": "[4]", "value": 27000, "unit": "MFI"}, {"measurement": "Bmax", "setting": "[5]", "value": 23000, "unit": "MFI"}, {"measurement": "growth inhibition IC50, BT474 cells + EGF, 6 days", "setting": "[6]", "value": 0.3, "unit": "nM"}, {"measurement": "growth inhibition IC50, BT474 cells, 6 days", "setting": "[6]", "value": 0.1, "unit": "nM"}, {"measurement": "B50", "setting": "[7]", "value": 3.1, "unit": "nM"}, {"measurement": "growth inhibition span (percentage of cells killed), MDA-MB-175 cells", "setting": "[8]", "value": 75, "unit": "%"}, {"measurement": "growth inhibition IC50 (potency), SKBR3 cells", "setting": "[9]", "value": 0.12, "unit": "nM"}, {"measurement": "growth inhibition span (percentage of cells killed), SKBR3 cells", "setting": "[9]", "value": 22, "unit": "%"}, {"measurement": "growth inhibition span ratio to WT, SKBR3 cells", "setting": "[9]", "value": 1.3, "unit": "fold"}, {"measurement": "B50", "setting": "[10]", "value": 6.6, "unit": "nM"}, {"measurement": "B50", "setting": "[11]", "value": 1.2, "unit": "nM"}, {"measurement": "growth inhibition IC50 (potency), BT474 cells + EGF", "setting": "[12]", "value": 1, "unit": "nM"}, {"measurement": "growth inhibition span (percentage of cells killed), BT474 cells + EGF", "setting": "[12]", "value": 27, "unit": "%"}, {"measurement": "growth inhibition span ratio to WT, BT474 cells + EGF", "setting": "[12]", "value": 1.5, "unit": "fold"}, {"measurement": "Bmax", "setting": "[13]", "value": 570, "unit": "MFI"}]}, {"binder": "B2", "values": [{"measurement": "Kd", "setting": "Recombinant human HER2 [14]", "value": 15, "unit": "nM"}, {"measurement": "SPR Ka, mut/Ka, WT", "setting": "Recombinant human HER2 [15]", "value": 0.9, "unit": "fold"}]}, {"binder": "B3", "values": [{"measurement": "Kd", "setting": "Recombinant human HER2 [14]", "value": 4, "unit": "nM"}, {"measurement": "SPR Ka, mut/Ka, WT", "setting": "Recombinant human HER2 [15]", "value": 3.3, "unit": "fold"}]}, {"binder": "B4", "values": [{"measurement": "Kd", "setting": "Recombinant human HER2 [16]", "value": 1.8, "unit": "nM"}]}, {"binder": "B5", "values": [{"measurement": "Kd", "setting": "Recombinant human HER2 [14]", "value": 5.7, "unit": "nM"}, {"measurement": "SPR Ka, mut/Ka, WT", "setting": "Recombinant human HER2 [15]", "value": 2.4, "unit": "fold"}]}, {"binder": "B6", "values": [{"measurement": "Fold wrt v10014", "setting": "Recombinant human HER2 [17]", "value": 1, "unit": "fold"}, {"measurement": "Fold wrt WT", "setting": "Recombinant human HER2 [18]", "value": 7, "unit": "fold"}]}]}
